Numbering of substitutions follows the chain as printed. Numbers in names are those of the source.
B1: UniTE-huCD3-H1L1-H101F-LT41K (antibody, V domains shown)
VH: EVKLVESGGGLVQPGGSLRLSCAASGFTFNTYAMNWVRQAPGKGLEWVARIRSKYNNYATYYADSVKDRFTISRDDSKSSLYLQMNNLKTEDTAMYYCVRFGNFGNSYVSWFAYWGQGTLVTVSS
VL: not shown
notes: Monovalent UniBody-TE format
B2: UniTE-huCD3-H1L1-Y114M-LT41K (antibody, V domains shown)
VH: B1 VH with F101H, Y114M
VL: not shown
notes: Monovalent UniBody-TE format
B3: UniTE-huCD3-H1L1-Y114V-LT41K (antibody, V domains shown)
VH: B1 VH with F101H, Y114V
VL: not shown

Experiments:
[1] = biological target: T1, human CD3 on human T cells (human, UniProt P07766 23-207); experiment: flow cytometry on isolated human T cells, PE anti-human IgG detection
T1 construct: Natural CD3/TCR complex on T cells isolated from human donor buffy coats; The other chains of the complex (CD3γ, CD3δ, CD3ζ, polyclonal TCR) are also present on the cells
T1 sequence (P07766 23-207 limits assumed): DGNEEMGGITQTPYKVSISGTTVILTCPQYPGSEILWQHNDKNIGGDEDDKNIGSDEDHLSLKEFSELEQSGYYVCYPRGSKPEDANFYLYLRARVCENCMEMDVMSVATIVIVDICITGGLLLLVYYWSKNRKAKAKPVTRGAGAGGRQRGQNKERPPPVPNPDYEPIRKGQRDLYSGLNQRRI
Protocol: (§2) T cells were Isolated from a buffy coat fraction of anti-coagulated human donor blood samples and resuspended in PBS/0.1% BSA/0.02% azide at 1.8×10E6 cells/mL. 50 μL of T cell suspension and 50 μL of the antibody dilutions were combined in a 96 well plate on ice, Incubated for 30 min at 4° C. and washed twice with PBS/0.1% BSA/0.02% azide. […] The cells were resuspended in 120 μL PBS/0.1% BSA/0.02% azide and PE geometric Mean Fluorescence Intensity was measured. Binding curves were analyzed using non-linear regression (sigmoidal dose-response with variable slope) using GraphPad Prism V5.04 software (GraphPad Software, San Diego, Calif., USA) and apparent affinity (KD) was derived from the concentration at half-maximal binding.

[2] = biological target: T1, human CD3 on human T cells; experiment: flow cytometry on human T cells, PE anti-human IgG, GM-PE
Protocol: as §2

CD3ε27-GSKa [3] = biological target: T2, CD3ε27-GSKa (human); experiment: BLI (Octet HTX), UniTE antibody on anti-human Fc sensors, CD3ε27-GSKa in solution, 1:1 fit
T2 construct: also called Mature CD3ε27-GSKa
T2 sequence (chain, as listed by the source limits assumed): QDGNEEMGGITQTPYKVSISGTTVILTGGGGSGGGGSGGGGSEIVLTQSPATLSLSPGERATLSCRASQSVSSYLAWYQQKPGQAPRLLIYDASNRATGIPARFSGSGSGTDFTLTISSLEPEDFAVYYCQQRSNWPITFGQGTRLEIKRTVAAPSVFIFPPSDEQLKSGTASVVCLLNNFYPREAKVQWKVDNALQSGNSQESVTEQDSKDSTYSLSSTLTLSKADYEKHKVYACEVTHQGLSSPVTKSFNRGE
Protocol: (§1) Experiments were carried out while shaking at 1000 rpm and at 30° C.

CD3ε27-GSKa [4] = biological target: T2, CD3ε27-GSKa; experiment: BLI (Octet), summary table repeating Table 4
Protocol: as §1

Binder	Tcell binding average at 5000ng/ml (Geometric MFI) [1] [Geometric MFI]	binding result [2]	Ka (CD3ε27-GSKa [3]) [M⁻¹]	Kd (CD3ε27-GSKa [3]) [nM]	Kd (CD3ε27-GSKa [4]) [nM]
B1	641	no binding (tested: 5000 ng/mL)			
B2	3830		1.3e+07	76	76
B3	6020		1.3e+07	75	75
